# According to the supplement of paper PMC10567573:
# Experiment: protein stability index of a GFP-peptide fusion (GPS, HEK-293T) (PSI 1-6); higher = more stable
# Conditions: c terminus: a fixed tail appended
# 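Further: lentivirally expressed fusions sorted by FACS into six bins by GFP to DsRed ratio, PSI derived from sequencing read proportions per bin multiplied by bin number.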
protein,measurement,setting,value
DLNSKGKKREFRFHPIKETVVEEP,protein stability index,parent: IOH41890_91,2.23
YPPLEGHVRQGVFSSLNHIVEKRV,protein stability index,parent: IOH41890_75,2.53
RRPSPVLRHLELLDEFARENIDSL,protein stability index,parent: IOH42569_24,2.6
CKDFLCQFCAQRFGRKDHLTRHTK,protein stability index,parent: IOH42591_31,2.02
AFTMAENLANCERLIEVEDMMVMG,protein stability index,parent: IOH43320_46,2.04
DPNKMAFGCEECGKKYNTMLGYKR,protein stability index,parent: IOH42591_15,2.34
RVAKKLQSGLVWTNCWLIRELNLP,protein stability index,parent: IOH41048_73,2.99
YIGTHEYPHFSHRPSTLQAASTPQ,protein stability index,parent: IOH41283_62,1.94
CLLGLGSLVLILSLSYTVLIVGRI,protein stability index,parent: IOH40813_20,3.34
FYRLYQDLETHRLPCTSRCPRPCR,protein stability index,parent: IOH42569_73,2.21
YSAYIRRCACAASSDESPGSKCSP [TTC32 WT],protein stability index,parent: IOH43157_6,1.99
DRKLHSRPRKLYKHSSTSSRIAKG,protein stability index,parent: IOH43395_4,3.86
FLGHHSFSVRPGTEATISIREDEV,protein stability index,parent: IOH42569_57,1.72
AQLQALRQKEVDFCISLLRERFME,protein stability index,parent: IOH41890_38,2.31
GVSKVGLRKIIDFIYTAKLSLNMD,protein stability index,parent: IOH40892_24,2.67
LTLVFFVQITGQPNILFYASTVLK,protein stability index,parent: IOH40813_48,2.98
TRIMIGLTLVFFVQITGQPNILFY,protein stability index,parent: IOH40813_47,3.31
TPAKSLDKFIEDYLLPDTCFRMQI,protein stability index,parent: IOH41283_2,2.79
APKKELINIKGISEAKADKILAEA,protein stability index,parent: IOH41191_10,4.71
LELGSTEVLLDHLKAHAEEKPPSG,protein stability index,parent: IOH42591_22,4.44
GKAYGWCSELIRHRRVHARKEPSH [ZNF232 WT],protein stability index,parent: IOH40635_71,2.85
WSSRSPQERSRVLNQVADLLEQSL,protein stability index,parent: IOH41048_11,2.54
EEAEELAKEMSVPFYTSRIDEVLL,protein stability index,parent: IOH42390_7,3.76
FHPIKETVVEEPVDITPYLDQLDE,protein stability index,parent: IOH41890_93,3.32
WEVQVSPTCPVCKDRASPADLRTN,protein stability index,parent: IOH40792_9,2.54
QKNFELAFTMAENLANCERLIEVE,protein stability index,parent: IOH43320_45,1.84
RTHTGEQPYTCSICRRNFSRRSSL [ZNF75A WT],protein stability index,parent: IOH41486_45,2.88
TGEFLKLPFERLAFVLSSNSLKHC,protein stability index,parent: IOH40892_39,2.65
IRVMVHGRNHTPFLGHHSFSVRPG,protein stability index,parent: IOH42569_55,2.25
LQLGEGVEFDVLPAFDALGQLTGG,protein stability index,parent: IOH41283_24,1.9
KKREFRFHPIKETVVEEPVDITPY,protein stability index,parent: IOH41890_92,1.94
YIKVDWQRVEKDMKKAKEQLKIRK [FUNDC2 WT],protein stability index,parent: IOH40818_22,1.68
ASSVESTLPVLEASSWKKQVSHDF,protein stability index,parent: IOH41760_90,3
PRYREDPCKQCKKKYVKGDVSLCR,protein stability index,parent: IOH41760_105,2.57
PTCPVCKDRASPADLRTNHTLNNL,protein stability index,parent: IOH40792_10,2.83
TKEKKHQCDHCERCFYTRKDVRRH,protein stability index,parent: IOH42591_26,3.45
LTVYAWERGSMKTHFNTAQGFRTV,protein stability index,parent: IOH41283_40,2.27
FVYENAKEGARNIRTSERVTLIVD,protein stability index,parent: IOH43395_26,1.94
FTSGFNAAALDYEADGSTNNGIFQ [SPACA3 WT],protein stability index,parent: IOH42995_21,1.89
EDLTAKRKRMKMDKTCSKTKNKSK [FAM9B WT],protein stability index,parent: IOH41618_11,4.96
SDDFCTFQMVLEGGVCCTVTLNFN,protein stability index,parent: IOH42390_37,3.15
YANGGLNYSYRGYGALSSNLQPPA [C20orf112 WT],protein stability index,parent: IOH40687_56,2.06
FSDDEEDLNSKGKKREFRFHPIKE,protein stability index,parent: IOH41890_90,2.85
EEITEESLEESVGKPLYLIFRNLC,protein stability index,parent: IOH41890_107,2.68
FTGSQPTAERITQLSAPHCKKLSL,protein stability index,parent: IOH41048_39,2.08
YPCLEKPRIWSLAHTATASAVEGA [IRX6 WT],protein stability index,parent: IOH43040_58,2.44
WCLVQICEKYLPGYYSEKLEAIQL [TBC1D10A WT],protein stability index,parent: IOH41348_37,2.8
VVAYLALAALSATISFRIYKSVLQ [RTN1 WT],protein stability index,parent: IOH40898_10,3.02
RFLRMLLRLADEFGVAVVITNQVV,protein stability index,parent: IOH41191_42,2.39
EKPPSGTKEKKHQCDHCERCFYTR,protein stability index,parent: IOH42591_25,3.58
ETAAGKGKGEARARLKRSQSFGVA,protein stability index,parent: IOH43320_31,4.31
DKELLCCSCQADPRHQGHRVQPVK,protein stability index,parent: IOH40792_20,3.56
INRADYCPECYPDNPANRSLVLPW [IFRG15 WT],protein stability index,parent: IOH41552_8,2.18
